Measured values: the DeepSol protein solubility set

Test: soluble on expression in E. coli; label from the status in PepcDB or PDB records
With “MSDIKNITKLQIEDKGKKYSLYSLKKLSQELGKDVTRLPYSIRVLLENQLRNIDGYKVKEDDMHKVLDWDAKASSRPEIPHMPARVVMQDFTGVPAVVDLAAMRKAIKDAGGDADKINPLVDTAMVIDHSVQVDFYGTKTALAQNVAKEFERNGERYSLLKWAQKAFDDFIVVPPGMGIIHQVNLEYLAKGALVKNINGEDVIYPDTLVGTDSHTTMINGVGVVGWGVGGIEAEAVMLGQPYYMVLPDVVGVKFTGKLKTGVTATDLVLKVTEVLRKHGVVGKFVEYYGEGLESLSLPDRATIANMAPEYGATIGFFPVDEVTLDFFNNTNRSELVDAAREMYKEQLLFRENPAEEPEYSSIVEIDLSEVESNLAGPKRPQDRVAFHDMKKAFAEALVHEQGLHGFGLTDEQLQKLAEVKGLNERITHGSVAIAAITSCTNTSNPSLLLGAGLLAKKANEKGLKVKPFVKTSLAPGSQVVTQYLEKANLLPELENLGFNLVGYGCTTCIGNSGPLDEPVVEAINEADLIVASVSSGNRNFEGRINPHVKANYLASPIHVVAYALAGTVDFDPVEDAIGKDAEGNDVYLADIWPTTEEIAAIQSHVINSDMFKKAYATVLDGTEDWQKLKAPEGKLYEFDSSSTYIQCPNFFEKFAEGNDDLDIKGARTLLMLGDSVTTDHISPAGAIPEEYPAGQYLKSHGVEKKDFNSYGSRRGNHEVMMRGTFANIRIRNLLLDNVEGGFTKYHLDGSQQYVFDAAMKYKEKGIPLVILAGKEYGTGSSRDWAAKGTFLLGVKAVIAESYERIHRSNLVGMGVLPLEYVNGQNAKTLGLDGTEMFNIKNLNNIKPRQIVIVEAVHPKTAHTTTFEALARLDADVDVDYLKNGGILQTVLKDIMGDKKESKSTQSTTSKGCGSADTSSETSCPFAKIANFFKKLFK” the “soluble on expression in E. coli” value was “not soluble”.
With “MYNDEELITVQPEAFKALTPSKKFNETSNKLLDLAYSDDGNNLIVSAEDVVLVYDLRDGSKGKSIECKKYGVNCLEYLDTVKCVHSGPNDTTIRLLHLQKKSYVRYFDGHRMPVNFIRTNPKDREKFLSSSVDGEIRMFDTRTFENYGCLLAGHTPLIAFDPDGILFAVATKSDTIKLFDMRSFDLGPFQSFIITKTDNDEWSDIEFSPCGKFILISTTAGSVKWIDAFDGTLIHSFSQHKNPNVSFF” the “soluble on expression in E. coli” value was “not soluble”.
With “MGSDKIHHHHHHMTDFSQLPNAAGVGYKPQHFQNIIDGSGAVDWLEIHAENYMGDGGRPLAQLRHLAERFPISVHGVGLSIGGEGPLDPEHLARLKHLVDWLKPASFSEHLAWSTHDTHFYNDLLPLPYTDATLARICDHIDMVQTLLGRRMLLENPSSYLAFAESTWEEPAFLHEIAKRTGCGLLLDVNNVFVSATNLGYRPQDYIDAYPLDLVGEIHLGGHDEDEDDHGRPLLIDSHGAEVVDPVWSLLSYTLTRSGPKPTLVEWDTDVPEWSVLEAEAARAANALRTAKVAA” the “soluble on expression in E. coli” value was “not soluble”.
In the case of “MRNLVKYAGIGLLVMGLAACDNNDTKASAESAAAESQASGQPISLMDGKLSFSLPADMTDQSGKLGTQANNMHVYSDPTGQKAVIVIVGDNTDEALPVLANRLLEQQRSRDPQLQVVTNKSIELKGHTLQQLDSIISAKGQTAYSSIVLGKVDNQLLTIQVTLPADNQQKAQTTAENIINTLVIK”, the “soluble on expression in E. coli” value is reported as “not soluble”.
In the case of “MKHHHHHHPMVKEYKTITQIAGPLIFVEKTEPVGYNEIVNIKMGDGTVRRGQVLDSSADIVVVQVFEGTGGLDKDCGVIFTGETLKLPASVDLLGRILSGSGEPRDGGPRIVPDQLLDINGAAMNPYARLPPKDFIQTGISTIDGTNTLVRGQKLPIFSASGLPHNEIALQIARQASVPGSESAFAVVFAAMGITNEEAQYFMSDFEKTGALERAVVFLNLADDPAVERIVTPRMALTAAEYLAYEHGMHVLVILTDITNYAEALRQMGAARNEVPGRRGYPGYMYTDLATLYERAGIVKGAKGSVTQIPILSMPGDDITHPIPDLSGYITEGQIVVARELHRKGIYPPINVLPSLSRLMNSGIGAGKTREDHKAVSDQMYAGYAEGRDLRGLVAIVGKEALSERDTKFLEFADLFEDKFVRQGWNENRTIEDTLEIGWQILTHLPENQLGRIDNKYIQKYHPAHRKAK”, the “soluble on expression in E. coli” value is reported as “soluble”.
For “MAIESGYILTTPCKNEEKSLPELAESIINQTITPKLWLIINDNSTDNSAKILRDIETKYNWIRVVTSEGQKRDLSFHYAEVVRYGLSLSLEISSAEKIPVEYIGLIDADMILEKNFFEKMIDRFEQDPNLGVASGSTAYFEAENLVTEKGRDNLPIGGLRVWRRECLIETGGFPLSYSADSVSNVLALLHGWETKKFEDIIGIQTRRTGSAEGLWKGYITKGESDYYRDYHPVYVLSKFIKYSFTHPFYIGIAYMEGYINGIVKIKKKICIPEVRRYYRKKHLEIGRYYAGKFKFKLLEHHHHHH”, the “soluble on expression in E. coli” value was “not soluble”.
For “MGSDKIHHHHHHMVGIVLASHGGFADGIAESAQMLFGPQDNFAHVILKPSEGPEDIKGKMNEAIASFADQEEVLFLVDLWGGTPFNQANGLLDGHDKWAIVSGLNLPMVVEALTQRMINDKATAQDIATAIIKPAKDGIKTKPESLMPAEEKAAAPAAAAGAPKEAIPEGTVLGDGHIKIVGARIDSRLLHGQVVTGWIPSLHPDRVIVVSDKIAKDDLRKSMIREAAPAGTVAHTVPLEKMKEIYEDPRFGTTHAFLLFENPEDALQTIKNGVDIKTLNVGSMSYSKGKVNANNVLSMDQTDVDTFRELEKMGIKFDVRKVPSDNPENMDSILKKAQSLLDEQSSSEKRS”, the “soluble on expression in E. coli” value was “not soluble”.
With “MGSDKIHHHHHHMAGVSPLSNRWSKQVLSNFEQAASTYNSQAQLQRAVAWRLARQCARQHIPAGFWVDLGSGTGLMADALEACNPHQAVLRVDGCHEMLKHHHHSSQTLLWDLNLGVPSWPQLPSLLASSFALHWLINPLERLHEWMAALTPEGWLALALPVEGSFPQWHQAAATAGVSCTALPFPSQASLLDVLSSNNIRHQQLHQFTQQSPEVFQLLKPMRQIGAQASPCSTMGVGNWRHLKQAWPRCQNSGDAQLTWLIQLLLIQR” the “soluble on expression in E. coli” value was “not soluble”.
With “MSLQENISVTDSYSTGNAAQAMLEKLLQIYDVKMLVAQLNGVGENHWSAAILKRALANDSAWHRLSEKEFAHLQTLLPKPPEHHPHYAFRFIDLFAGIGGIRRGFESIGGQCVFTSEWNKHAVRTYKANHYCDPATHHFNEDIRDITLSHQEGVSDEAAAEHIRQHIPEHDVLLAGFPCQPFSLAGVSKKNSLGRAHGFACDTQGTLFFDVVRIIDARRPAMFVLENVKNLKSHDKGKTFRIIMQTLDELGYDVADAEDNGPDDPKIIDGKHFLPQHRERIVLVGFRRDLNLKADFTLRDISECFPAQRVTLAQLLDPMVEAKYILTPVLWKYLYRYAKKHQARGNGFGYGMVYPNNPQSVTRTLSARYYKDGAEILIDRGWDMATGEKDFDDPLNQQHRPRRLTPRECARLMGFEAPGEAKFRIPVSDTQAYRQFGNSVVVPVFAAVAKLLEPKIKQAVALRQQEAQHGRRSREGHHHHHH” the “soluble on expression in E. coli” value was “soluble”.
In the case of “MAPALVQRRKKVAMIGSGMIGGTMGYLCALRELADVVLYDVVKGMPEGKALDLSHVTSVVDTNVSVRAEYSYEAALTGADCVIVTAGLTKVPGKPDSEWSRNDLLPFNSKIIREIGQNIKKYCPKTFIIVVTNPLDCMVKVMCEASGVPTNMICGMACMLDSGRFRRYVADALSVSPRDVQATVIGTHGDCMVPLVRYITVNGYPIQKFIKDGVVTEKQLEEIAEHTKVSGGEIVRFLGQGSAYYAPAASAVAMATSFLNDEKRVIPCSVYCNGEYGLKDMFIGLPAVIGGAGIERVIELELNEEEKKQFQKSVDDVMALNKAVAALQAPG”, the “soluble on expression in E. coli” value is reported as “soluble”.
With “GPGSMSRTQTSSKSVPKNIAVYCRVRPPVPNEKGHTFQNISYDDSDSRAIAVARKSGTKALEKTYLFNRVFRPTATQKDVYETFAKGAVDAAFDGQHGVLFVYGQTGSGKTFTISNDEPNNEGVLQRSMRDIWNRIASDTANDYSCSVSYVQLYNEILTDLLDDAKGKVRIQMGSEGRGDVVMVSDSTGMAIEREVKDYKSTMACFQVGLARKEMASTSMNSTSSRSHTIFTLNIVKAKKVVAVTV” the “soluble on expression in E. coli” value was “not soluble”.
With “MNTKKEIKFIEEIKGLVPKKLGKIYTSSIIEKDSKRLTINLKKVDALPKCGLIGAPDVCVKITLTQGAKTQTKSSRVIKNTCSAVYNEAVMFLCGTSKNDLAQTSIVISVHDAQRTCTGDDTIGCAYLGIGAVDKSEIDQWKGTTEHLGKEYKGNHTLKAPITAPPVHVAEANDDVAADDDD” the “soluble on expression in E. coli” value was “soluble”.
For “MSLYKAYLIDLDGTMYRGAEVIPEAIIFIENLKRAGLPYLFVTNNSTKTPGQVAEHLTDMGIQAVSDDVFTTSQATVQFMMEQKREKTVYVIGERGIKQELTDNGFEITSSNPAFVVVGLDREVDYEKFSKAALAVRGGAMFISTNGDAAIPTERGLLPGNGSITSVVSVATETAPIFIGKPESIIMEQALAKLGVHKDEAIMVGDNYETDIMAGINYGMDTLIVHTGFTSKEALLTKEIQPTYAVTKLTDWEFNEGHHHHHH”, the “soluble on expression in E. coli” value was “not soluble”.
For “MPLAKDLLHPLPAEEKRKHKLKRLVQHPNSYFMDVKCPGCYRITTVFSHAQGVVVCAGCATILCQPTGGRAKLTEGCSFRRKPQLEHHHHHH”, the “soluble on expression in E. coli” value was “not soluble”.
With “MVQSSSVLREPSMDEILTSIREIIEENAVHPDYFSNEGAAGNSSRENLEIPSEGVYDTSLSVDDAMKALADRIGLSSENHDFSLTKDKESIEAENNTVGVDMQKMKRSSEEQSSVHRTQEHNKPFSQSENVIAGHVELSAYCISSAEKIAKDVLRPAIAEWLQHKLPVLLEDILREEIVRAIKKSS” the “soluble on expression in E. coli” value was “not soluble”.
With “MLVLNPFSEKAVSPEDRDMVLRRGIAALDCSWKKVKKSSVIFQTARNHRSLPFLVAANPTNYGKPCILSTAEAVAATLYIVGLKDIASDIMSYFKWGPHFLDLNRELLEAYSRAENSLEVVEIQKKFIGGLEHHHHHH” the “soluble on expression in E. coli” value was “soluble”.
In the case of “MKLVLVSTRGVRSLNSTNFPAPWPFVKKGAFGQRKIGPMNYEKFKWPGQNREFPELSPKFQKLNPKELHRYTGVQADGFHDEKTGEFVPVKEMRSELVVPNLDGFKLRPYVSYRTDVQIEKRRVAYEKKVLEKGSERLADLHTVEDERWPPPKMSAETLFELAYGDTVRSAYKEGKYGNK”, the “soluble on expression in E. coli” value is reported as “not soluble”.
In the case of “MSADGAEADGSTQVTVEEPVQQPSVVDRVASMPLISSTCDMVSAAYASTKESYPHVKTVCDAAEKGVRTLTAAAVSGAQPILSKLEPQIASASEYAHRGLDKLEENLPILQQPTEKVLADTKELVSSKVSGAQEMVSSAKDTVATQLSEAVDATRGAVQSGVDKTKSVVTGGVQSVMGSRLGQMVLSGVDTVLGKSEEWADNHLPLTDAELARIATSLDGFDVASVQQQRQEQSYFVRLGSLSERLRQHAYEHSLGKLRATKQRAQEALLQLSQVLSLMETVKQGVDQKLVEGQEKLHQMWLSWNQKQLQGPEKEPPKPEQVESRALTMFRDIAQQLQATCTSLGSSIQGLPTNVKDQVQQARRQVEDLQATFSSIHSFQDLSSSILAQSRERVASAREALDHMVEYVAQNTPVTWLVGPFAPGITEKAPEEKK”, the “soluble on expression in E. coli” value is reported as “soluble”.
In the case of “MNGNSTNNEQLQQELATTQDQVASIIESFVELGVSIYDFPGTPEATKGMITNLQRNVDRLYKLNVRSNDPQSSLSKVDIPLEVVQYIEDGRNPDIYTREFVEAIRRSNQYQRGKMHGLKQLRDSLADKIVDEFPELKEPVEDIIKRTSPIDNVSNTH”, the “soluble on expression in E. coli” value is reported as “not soluble”.
In the case of “MQFHIDDMTCGGCASTVKKTILTLDANATVRTDPATRLVDVETSLSAEQIAAALQKAGFPPRER”, the “soluble on expression in E. coli” value is reported as “not soluble”.
In the case of “MGHHHHHHSHMIGKCTHVVDCRETMGMGEGGGIAQRGTFAQCGSEVLAVAMSPGRRHITKPVCEITFALREANIMTSTIVLNAGAGVPQDAPSAGAGSLFGLTPAEVEQMKRHKLLVVHLGGVKNHITYKARLILRNVDRPCIIICEYPVDFEDFAKIGVRTRAVMPDEPKTKGTIVDIVSGVIRGETCPQEKLDEIIRKVKLALGGA”, the “soluble on expression in E. coli” value is reported as “soluble”.
